# Experimental data taken from article PMC10496648.
# Target: Kv4.2-YFP (mouse) (UniProt Q9Z0V2)
# Assay: FRET or BRET
# Sequence of UniProt Q9Z0V2 (Q9Z0V2 whole entry): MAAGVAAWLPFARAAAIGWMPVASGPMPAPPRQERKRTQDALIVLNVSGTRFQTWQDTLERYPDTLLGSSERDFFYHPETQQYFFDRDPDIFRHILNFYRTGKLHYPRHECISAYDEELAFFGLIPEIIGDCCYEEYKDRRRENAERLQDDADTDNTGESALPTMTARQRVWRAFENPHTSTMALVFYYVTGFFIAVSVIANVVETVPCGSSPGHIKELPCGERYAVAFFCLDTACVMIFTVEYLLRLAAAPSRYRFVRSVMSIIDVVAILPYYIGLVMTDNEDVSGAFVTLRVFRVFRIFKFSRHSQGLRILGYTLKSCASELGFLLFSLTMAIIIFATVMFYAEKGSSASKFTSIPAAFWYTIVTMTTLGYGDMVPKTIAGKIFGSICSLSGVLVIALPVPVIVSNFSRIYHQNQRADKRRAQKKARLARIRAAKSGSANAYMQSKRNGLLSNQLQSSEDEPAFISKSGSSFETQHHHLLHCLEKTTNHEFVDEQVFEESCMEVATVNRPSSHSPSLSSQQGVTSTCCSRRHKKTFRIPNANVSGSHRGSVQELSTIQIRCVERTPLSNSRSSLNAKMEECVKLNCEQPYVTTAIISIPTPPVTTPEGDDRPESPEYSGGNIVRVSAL
substance,measurement,value
"KChIP3a-CFP (text) / KChIP2c-CFP (legend, methods) (from UniProt Q9JM59-3 1-220) (natural protein)",FRET efficiency,11.2%
same,stoichiometry N,1
